Consider 14 variants from the supplement of paper PMC7125110.

The labels stand for the following.
B1: glmS ribozyme (parent)
chain: AUAAAAGCGCCAGAACUACAGAAAUGUAGUUGACGAGGAGGAGGUUUAUCGAAUUUUCGGCGGAUGCCUCCAAA

What all share (conditions): with glucosamine-6-phosphate
Series [1] covers variants of B1. The series can be described thus: kcat; higher = faster cleavage; RNA array. A digest of the protocol: (§1)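 Glucosamine-6-phosphate (40 μM to 10 mM) in HEPES/KCl/Mg(OAc)2 buffer was flowed over sequenced MiSeq chips, and tiles were imaged over ~14 h. Barcoded ribozyme variants there had been transcribed in situ by E. coli RNA polymerase and were tracked through a hybridised Cy3 probe at 37 °C. One- or two-exponential decay fits to per-tile medians, normalised to baseline and to non-cleaving reference variants, gave kobs. kcat and KM came from weighted Michaelis–Menten fits across concentrations.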

Variants of B1 are the subject of series [2]. The series can be described thus: KM; higher = weaker cofactor use; RNA array. The essentials:
as §1

The variants in series [3] derive from B1. The series can be described thus: self-cleavage kobs at 40 uM GlcN6P; higher = faster cleavage; RNA array. The essentials: as §1
Variants of B1 are the subject of series [4]. The series can be described thus: self-cleavage kobs at 160 uM GlcN6P; higher = faster cleavage; RNA array. The essentials: as §1
Series [5] covers variants of B1. Nature of the series: self-cleavage kobs at 640 uM GlcN6P; higher = faster cleavage; RNA array. The essentials:
as §1

The variants in series [6] derive from B1. The series can be described thus: self-cleavage kobs at 2500 uM GlcN6P; higher = faster cleavage; RNA array. The essentials:
as §1

The variants in series [7] derive from B1. Nature of the series: self-cleavage kobs at 10000 uM GlcN6P; higher = faster cleavage; RNA array. A digest of the protocol: as §1

± gives the standard error. For some of these results: Fewer inactive variants are shown than the library holds.

Take U46G C71U: the turnover number (kcat) with glucosamine-6-phosphate [1] was determined as 0.00721 ± 0.0015 s⁻¹. Besides, the Michaelis constant (KM) in the series with glucosamine-6-phosphate [2] was 1750 ± 550 µM. The “self-cleavage kobs at 40 uM GlcN6P” value with glucosamine-6-phosphate [3] turned out to be 0.00018 ± 1.7e-05 s⁻¹. For the same variant, in the series with glucosamine-6-phosphate [4], the “self-cleavage kobs at 160 uM GlcN6P” value is 0.000349 ± 8.8e-05 s⁻¹. Also, the “self-cleavage kobs at 640 uM GlcN6P” value in the series with glucosamine-6-phosphate [5] stood at 0.00219 ± 0.00026 s⁻¹. Also, the “self-cleavage kobs at 2500 uM GlcN6P” value with glucosamine-6-phosphate [6] amounted to 0.00497 ± 0.00059 s⁻¹. In addition, the “self-cleavage kobs at 10000 uM GlcN6P” value in the series with glucosamine-6-phosphate [7] amounted to 0.00576 ± 0.00058 s⁻¹.
On to A39U A42G, for which the kcat with glucosamine-6-phosphate [1] came to 0.0208 ± 0.0077 s⁻¹. Also, the Michaelis constant (KM) in the series with glucosamine-6-phosphate [2] is 1440 ± 690 µM. Also, the “self-cleavage kobs at 40 uM GlcN6P” value with glucosamine-6-phosphate [3] came to 0.000671 ± 0.00011 s⁻¹. Also, the “self-cleavage kobs at 160 uM GlcN6P” value in the series with glucosamine-6-phosphate [4] worked out at 0.00186 ± 0.00055 s⁻¹. Further, the “self-cleavage kobs at 640 uM GlcN6P” value with glucosamine-6-phosphate [5] worked out at 0.0052 ± 0.0011 s⁻¹. Further, in the series with glucosamine-6-phosphate [6], the “self-cleavage kobs at 2500 uM GlcN6P” value worked out at 0.0216 ± 0.0065 s⁻¹. Moreover, the “self-cleavage kobs at 10000 uM GlcN6P” value in the series with glucosamine-6-phosphate [7] is 0.019 ± 0.006 s⁻¹.
As for A12U A33U, in the series with glucosamine-6-phosphate [1], the kcat came to 0.000444 ± 0.0001 s⁻¹. Further, the Michaelis constant (KM) with glucosamine-6-phosphate [2] is 3790 ± 1500 µM. The “self-cleavage kobs at 640 uM GlcN6P” value with glucosamine-6-phosphate [5] is 7.77e-05 ± 8.6e-06 s⁻¹. Besides, in the series with glucosamine-6-phosphate [6], the “self-cleavage kobs at 2500 uM GlcN6P” value was 0.00015 ± 1.6e-05 s⁻¹. In the series with glucosamine-6-phosphate [7], the “self-cleavage kobs at 10000 uM GlcN6P” value worked out at 0.000348 ± 3.2e-05 s⁻¹.
Regarding A15U U55C, in the series with glucosamine-6-phosphate [1], the turnover number (kcat) is 0.00268 ± 0.0003 s⁻¹. Moreover, in the series with glucosamine-6-phosphate [2], the KM came out at 915 ± 160 µM. The “self-cleavage kobs at 40 uM GlcN6P” value in the series with glucosamine-6-phosphate [3] is 0.000117 ± 2.1e-05 s⁻¹. Also, the “self-cleavage kobs at 160 uM GlcN6P” value in the series with glucosamine-6-phosphate [4] was determined as 0.00039 ± 6.4e-05 s⁻¹. For the same variant, the “self-cleavage kobs at 640 uM GlcN6P” value with glucosamine-6-phosphate [5] is 0.00136 ± 0.00052 s⁻¹. Besides, in the series with glucosamine-6-phosphate [6], the “self-cleavage kobs at 2500 uM GlcN6P” value was 0.00158 ± 0.00036 s⁻¹. Further, the “self-cleavage kobs at 10000 uM GlcN6P” value in the series with glucosamine-6-phosphate [7] was 0.00269 ± 0.00038 s⁻¹.
For the variant G41U A64G, the catalytic constant (kcat) in the series with glucosamine-6-phosphate [1] came out at 0.000821 ± 6e-05 s⁻¹. Moreover, the KM with glucosamine-6-phosphate [2] came to 2970 ± 430 µM. Moreover, the “self-cleavage kobs at 160 uM GlcN6P” value in the series with glucosamine-6-phosphate [4] was 3.5e-05 ± 9.6e-06 s⁻¹. Besides, the “self-cleavage kobs at 640 uM GlcN6P” value with glucosamine-6-phosphate [5] stood at 0.00015 ± 2.3e-05 s⁻¹. Besides, the “self-cleavage kobs at 2500 uM GlcN6P” value with glucosamine-6-phosphate [6] stood at 0.000414 ± 5.2e-05 s⁻¹. Moreover, in the series with glucosamine-6-phosphate [7], the “self-cleavage kobs at 10000 uM GlcN6P” value is 0.000621 ± 4.9e-05 s⁻¹.
As for U30G U46G, the kcat in the series with glucosamine-6-phosphate [1] turned out to be 0.00267 ± 0.0006 s⁻¹. Further, in the series with glucosamine-6-phosphate [2], the KM worked out at 3990 ± 1200 µM. The “self-cleavage kobs at 40 uM GlcN6P” value with glucosamine-6-phosphate [3] is 4.16e-05 ± 1.4e-05 s⁻¹. The “self-cleavage kobs at 160 uM GlcN6P” value with glucosamine-6-phosphate [4] worked out at 0.000105 ± 2.3e-05 s⁻¹. For the same variant, the “self-cleavage kobs at 640 uM GlcN6P” value in the series with glucosamine-6-phosphate [5] was determined as 0.000333 ± 4.9e-05 s⁻¹. Further, the “self-cleavage kobs at 2500 uM GlcN6P” value with glucosamine-6-phosphate [6] worked out at 0.00112 ± 0.00015 s⁻¹. The “self-cleavage kobs at 10000 uM GlcN6P” value with glucosamine-6-phosphate [7] is 0.00181 ± 0.00038 s⁻¹.
Turning to C50G G62C, the kcat with glucosamine-6-phosphate [1] was determined as 2.62e-05 ± 7.9e-06 s⁻¹.
As to A39C U55C, in the series with glucosamine-6-phosphate [1], the kcat is 0.00774 ± 0.0022 s⁻¹. In addition, the KM with glucosamine-6-phosphate [2] was determined as 3010 ± 1100 µM. Besides, the “self-cleavage kobs at 40 uM GlcN6P” value in the series with glucosamine-6-phosphate [3] worked out at 0.000127 ± 1.4e-05 s⁻¹. Moreover, the “self-cleavage kobs at 160 uM GlcN6P” value in the series with glucosamine-6-phosphate [4] is 0.000325 ± 5e-05 s⁻¹. In the series with glucosamine-6-phosphate [5], the “self-cleavage kobs at 640 uM GlcN6P” value worked out at 0.00144 ± 0.00027 s⁻¹. Further, in the series with glucosamine-6-phosphate [6], the “self-cleavage kobs at 2500 uM GlcN6P” value came out at 0.00268 ± 0.00051 s⁻¹. The “self-cleavage kobs at 10000 uM GlcN6P” value with glucosamine-6-phosphate [7] worked out at 0.0067 ± 0.00081 s⁻¹.
On to A12G U45C, for which the kcat in the series with glucosamine-6-phosphate [1] is 6.32e-05 ± 3.9e-06 s⁻¹. The Michaelis constant (KM) with glucosamine-6-phosphate [2] stood at 2510 ± 620 µM. Further, the “self-cleavage kobs at 2500 uM GlcN6P” value with glucosamine-6-phosphate [6] is 3.29e-05 ± 1.6e-05 s⁻¹. The “self-cleavage kobs at 10000 uM GlcN6P” value in the series with glucosamine-6-phosphate [7] amounted to 5.04e-05 ± 8e-06 s⁻¹.
On to C50G, for which the kcat with glucosamine-6-phosphate [1] worked out at 0.000456 ± 6.7e-05 s⁻¹. Moreover, the KM with glucosamine-6-phosphate [2] was 90.7 ± 38 µM. Further, in the series with glucosamine-6-phosphate [3], the “self-cleavage kobs at 40 uM GlcN6P” value was 0.000121 ± 1.5e-05 s⁻¹. For the same variant, the “self-cleavage kobs at 160 uM GlcN6P” value in the series with glucosamine-6-phosphate [4] was 0.000444 ± 4.8e-05 s⁻¹. Further, the “self-cleavage kobs at 640 uM GlcN6P” value with glucosamine-6-phosphate [5] turned out to be 0.000443 ± 4.5e-05 s⁻¹. In the series with glucosamine-6-phosphate [6], the “self-cleavage kobs at 2500 uM GlcN6P” value is 0.000399 ± 4e-05 s⁻¹. For the same variant, the “self-cleavage kobs at 10000 uM GlcN6P” value with glucosamine-6-phosphate [7] amounted to 0.000408 ± 5.8e-05 s⁻¹.
As to C10U C50A, the kcat with glucosamine-6-phosphate [1] was less than 1e-05 s⁻¹. In addition, the “self-cleavage kobs at 40 uM GlcN6P” value in the series with glucosamine-6-phosphate [3] is less than 1e-05 s⁻¹. Also, the “self-cleavage kobs at 10000 uM GlcN6P” value in the series with glucosamine-6-phosphate [7] is less than 1e-05 s⁻¹.
As to A52U C71G, the kcat with glucosamine-6-phosphate [1] is 9.41e-05 ± 6.3e-06 s⁻¹. In addition, in the series with glucosamine-6-phosphate [2], the KM came out at 1700 ± 380 µM. Moreover, the “self-cleavage kobs at 640 uM GlcN6P” value in the series with glucosamine-6-phosphate [5] came out at 3.14e-05 ± 1.3e-05 s⁻¹. For the same variant, the “self-cleavage kobs at 2500 uM GlcN6P” value with glucosamine-6-phosphate [6] came out at 5.28e-05 ± 9.2e-06 s⁻¹. Besides, in the series with glucosamine-6-phosphate [7], the “self-cleavage kobs at 10000 uM GlcN6P” value was 8.19e-05 ± 1e-05 s⁻¹.
Regarding A52C U54G G63A, in the series with glucosamine-6-phosphate [1], the catalytic constant (kcat) came out at 1.25e-05 ± 2.6e-06 s⁻¹. For the same variant, the “self-cleavage kobs at 2500 uM GlcN6P” value in the series with glucosamine-6-phosphate [6] is less than 1e-05 s⁻¹. The “self-cleavage kobs at 10000 uM GlcN6P” value with glucosamine-6-phosphate [7] is less than 1e-05 s⁻¹.
On to A12U A39C U56G, for which the kcat with glucosamine-6-phosphate [1] worked out at 0.00242 ± 0.00054 s⁻¹. In the series with glucosamine-6-phosphate [2], the KM stood at 3430 ± 1000 µM. In the series with glucosamine-6-phosphate [3], the “self-cleavage kobs at 40 uM GlcN6P” value stood at 2.75e-05 ± 1e-05 s⁻¹. Besides, the “self-cleavage kobs at 160 uM GlcN6P” value with glucosamine-6-phosphate [4] turned out to be 0.000109 ± 1.8e-05 s⁻¹. In addition, in the series with glucosamine-6-phosphate [5], the “self-cleavage kobs at 640 uM GlcN6P” value was 0.000287 ± 0.00011 s⁻¹. Besides, in the series with glucosamine-6-phosphate [6], the “self-cleavage kobs at 2500 uM GlcN6P” value worked out at 0.00138 ± 0.00027 s⁻¹. In addition, the “self-cleavage kobs at 10000 uM GlcN6P” value in the series with glucosamine-6-phosphate [7] came out at 0.00168 ± 0.00031 s⁻¹.
